In patent US20180318386A1, “PEPTIDES AND METHODS OF TREATING ENDOMETRIOSIS USING THE SAME” (BIOINCEPT, LLC, priority 2014, published 2018):

Key:
[1] = molecular target: Serum deprivation-response protein (human) (UniProt O95810); assay: PIF affinity resin pull-down, CD4+ cell lysate, LC-MS/MS count
[2] = molecular target: Serine/arginine-rich-splicing factor 2 (human) (UniProt Q01130); assay: as above
Thrombospondin-4 (human) = Thrombospondin-4 (human) (UniProt P35443); assay: as above
[3] = molecular target: 14-3-3 protein zeta/delta (human) (UniProt P63104); assay: as above
Calreticulin (human) = Calreticulin (human) (UniProt P27797); assay: as above
[4] = molecular target: Serine/arginine-rich-splicing factor 1 (human) (UniProt Q07955); assay: as above
[5] = molecular target: Tropomyosin alpha-4 chain (human) (UniProt P67936); assay: as above
[6] = molecular target: Actin, cytoplasmic 1 (human) (UniProt P60709); assay: as above
Calmodulin (human) = Calmodulin (human) (UniProt P0DP23); assay: as above
[7] = molecular target: Isoform 2 of Heat shock protein HSP 90-alpha (human) (UniProt P07900); assay: as above
[8] = molecular target: Acidic leucine-rich nuclear phosphoprotein 32 family member A (human) (UniProt P39687); assay: as above
Cofilin-1 (human) = Cofilin-1 (human) (UniProt P23528); assay: as above
[9] = molecular target: Thrombin light chain (human) (UniProt P00734); assay: as above
Serum albumin (human) = Serum albumin (human) (UniProt P02768); assay: as above
[10] = molecular target: Hepatoma-derived growth factor (human) (UniProt P51858); assay: as above
Thymosin alpha-1 (human) = Thymosin alpha-1 (human) (UniProt P06454); assay: as above
[11] = molecular target: Isoform 11 of Titin (human) (UniProt Q8WZ42); assay: as above
Thrombospondin-1 (human) = Thrombospondin-1 (human) (UniProt P07996); assay: as above
[12] = molecular target: Histone H2A type 1-B/E (human) (UniProt P04908); assay: as above
Nucleolin (human) = Nucleolin (human) (UniProt P19338); assay: as above
[13] = molecular target: Cartilage oligomeric matrix protein (human) (UniProt P49747); assay: as above
[14] = molecular target: Isoform 2 of Protein SET (human) (UniProt Q01105); assay: as above
[15] = molecular target: Glucosidase 2 subunit beta (human) (UniProt P14314); assay: as above
[16] = molecular target: Isoform 2 of Adenylyl cyclase-associated protein 1 (human) (UniProt Q01518); assay: PIF affinity resin pull-down, CD14+ cell lysate, LC-MS/MS count
Sequence of Isoform 2 of Adenylyl cyclase-associated protein 1 (human) (Q01518 other isoform, or with tags, fused parts or gaps limits assumed): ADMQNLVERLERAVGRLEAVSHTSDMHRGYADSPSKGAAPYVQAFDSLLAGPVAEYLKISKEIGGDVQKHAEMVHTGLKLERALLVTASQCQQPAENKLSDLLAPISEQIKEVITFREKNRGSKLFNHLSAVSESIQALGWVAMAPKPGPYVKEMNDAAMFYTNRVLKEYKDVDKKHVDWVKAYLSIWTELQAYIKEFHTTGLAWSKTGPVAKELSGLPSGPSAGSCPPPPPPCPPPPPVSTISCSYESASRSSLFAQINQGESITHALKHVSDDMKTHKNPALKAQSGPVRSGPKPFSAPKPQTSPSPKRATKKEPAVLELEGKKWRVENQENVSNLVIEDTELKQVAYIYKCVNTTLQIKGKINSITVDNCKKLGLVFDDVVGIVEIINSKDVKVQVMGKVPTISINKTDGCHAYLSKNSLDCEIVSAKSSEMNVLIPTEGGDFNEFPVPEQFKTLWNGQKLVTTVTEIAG

Sequence of Tropomyosin alpha-4 chain (human) (P67936 2-248 limits assumed): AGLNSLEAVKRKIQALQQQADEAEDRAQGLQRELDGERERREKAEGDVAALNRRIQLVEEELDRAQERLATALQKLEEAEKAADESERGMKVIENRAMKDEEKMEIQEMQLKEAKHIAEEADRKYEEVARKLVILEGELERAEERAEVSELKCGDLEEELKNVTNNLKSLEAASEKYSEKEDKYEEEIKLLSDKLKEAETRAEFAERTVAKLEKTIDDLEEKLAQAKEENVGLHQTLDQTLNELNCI
Sequence of Hepatoma-derived growth factor (human) (P51858 whole entry): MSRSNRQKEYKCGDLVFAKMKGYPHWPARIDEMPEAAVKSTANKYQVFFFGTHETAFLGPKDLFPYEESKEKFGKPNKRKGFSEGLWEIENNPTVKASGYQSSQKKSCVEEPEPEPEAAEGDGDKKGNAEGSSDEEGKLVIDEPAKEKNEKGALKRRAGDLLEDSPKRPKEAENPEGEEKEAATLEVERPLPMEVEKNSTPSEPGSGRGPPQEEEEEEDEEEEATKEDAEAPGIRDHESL
Sequence of Acidic leucine-rich nuclear phosphoprotein 32 family member A (human) (P39687 whole entry): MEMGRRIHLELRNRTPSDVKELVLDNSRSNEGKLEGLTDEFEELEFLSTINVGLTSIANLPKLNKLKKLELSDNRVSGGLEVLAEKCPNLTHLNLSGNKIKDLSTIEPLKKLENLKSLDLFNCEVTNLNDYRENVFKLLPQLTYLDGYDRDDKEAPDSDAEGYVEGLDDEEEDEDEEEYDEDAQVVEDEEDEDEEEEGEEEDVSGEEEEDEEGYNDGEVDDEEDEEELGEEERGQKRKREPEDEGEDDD
Sequence of Serine/arginine-rich-splicing factor 2 (human) (Q01130 2-221 limits assumed): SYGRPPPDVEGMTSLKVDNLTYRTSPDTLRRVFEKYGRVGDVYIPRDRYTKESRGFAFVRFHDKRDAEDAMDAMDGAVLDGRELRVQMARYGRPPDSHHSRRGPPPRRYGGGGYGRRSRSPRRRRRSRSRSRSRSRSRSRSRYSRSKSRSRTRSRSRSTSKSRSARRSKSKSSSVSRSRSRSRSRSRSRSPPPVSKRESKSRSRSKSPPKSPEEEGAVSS
Sequence of Serine/arginine-rich-splicing factor 1 (human) (Q07955 2-248 limits assumed): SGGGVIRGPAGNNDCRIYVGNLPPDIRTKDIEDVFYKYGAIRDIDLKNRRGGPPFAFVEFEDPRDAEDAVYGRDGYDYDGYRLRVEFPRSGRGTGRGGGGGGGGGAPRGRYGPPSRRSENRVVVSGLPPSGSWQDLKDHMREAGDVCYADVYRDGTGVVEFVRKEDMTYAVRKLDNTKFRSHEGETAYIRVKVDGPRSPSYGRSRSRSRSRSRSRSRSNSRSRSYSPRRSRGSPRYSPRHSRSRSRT
Sequence of Isoform 2 of Protein SET (human) (Q01105 other isoform, or with tags, fused parts or gaps limits assumed): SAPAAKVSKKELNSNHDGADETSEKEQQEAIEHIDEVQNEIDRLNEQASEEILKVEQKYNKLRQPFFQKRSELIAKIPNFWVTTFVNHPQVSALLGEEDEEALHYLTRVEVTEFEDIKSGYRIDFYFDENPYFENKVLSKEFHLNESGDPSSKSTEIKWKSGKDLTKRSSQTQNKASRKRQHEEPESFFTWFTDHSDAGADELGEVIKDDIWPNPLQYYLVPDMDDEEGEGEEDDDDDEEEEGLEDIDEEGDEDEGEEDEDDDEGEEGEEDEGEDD
Sequence of Thrombospondin-4 (human) (P35443 27-961 limits assumed): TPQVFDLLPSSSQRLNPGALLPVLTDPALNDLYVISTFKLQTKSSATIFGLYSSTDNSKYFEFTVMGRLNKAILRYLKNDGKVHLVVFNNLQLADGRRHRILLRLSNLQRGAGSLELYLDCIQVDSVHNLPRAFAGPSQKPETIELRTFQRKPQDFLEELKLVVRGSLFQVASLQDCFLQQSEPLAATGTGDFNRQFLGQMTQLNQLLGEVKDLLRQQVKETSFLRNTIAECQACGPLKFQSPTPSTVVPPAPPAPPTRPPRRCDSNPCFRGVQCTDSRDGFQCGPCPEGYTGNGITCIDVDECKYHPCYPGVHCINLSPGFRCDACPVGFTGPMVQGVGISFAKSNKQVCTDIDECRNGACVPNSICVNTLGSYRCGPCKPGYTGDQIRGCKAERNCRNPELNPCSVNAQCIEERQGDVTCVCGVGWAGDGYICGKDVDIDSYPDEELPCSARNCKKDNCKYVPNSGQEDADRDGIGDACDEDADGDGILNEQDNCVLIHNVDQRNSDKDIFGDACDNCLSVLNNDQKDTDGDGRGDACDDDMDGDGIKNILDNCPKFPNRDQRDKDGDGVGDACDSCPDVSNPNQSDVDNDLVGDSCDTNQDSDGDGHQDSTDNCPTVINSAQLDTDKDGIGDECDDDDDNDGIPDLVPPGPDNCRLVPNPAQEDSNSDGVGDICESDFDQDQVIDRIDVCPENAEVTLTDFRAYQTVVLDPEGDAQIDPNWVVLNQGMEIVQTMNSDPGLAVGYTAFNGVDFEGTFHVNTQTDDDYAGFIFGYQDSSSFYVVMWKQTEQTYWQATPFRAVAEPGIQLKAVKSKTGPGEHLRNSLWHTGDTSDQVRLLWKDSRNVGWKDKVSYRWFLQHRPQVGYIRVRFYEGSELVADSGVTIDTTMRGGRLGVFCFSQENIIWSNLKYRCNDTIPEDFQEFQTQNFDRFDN
Sequence of Calreticulin (human) (P27797 18-417 limits assumed): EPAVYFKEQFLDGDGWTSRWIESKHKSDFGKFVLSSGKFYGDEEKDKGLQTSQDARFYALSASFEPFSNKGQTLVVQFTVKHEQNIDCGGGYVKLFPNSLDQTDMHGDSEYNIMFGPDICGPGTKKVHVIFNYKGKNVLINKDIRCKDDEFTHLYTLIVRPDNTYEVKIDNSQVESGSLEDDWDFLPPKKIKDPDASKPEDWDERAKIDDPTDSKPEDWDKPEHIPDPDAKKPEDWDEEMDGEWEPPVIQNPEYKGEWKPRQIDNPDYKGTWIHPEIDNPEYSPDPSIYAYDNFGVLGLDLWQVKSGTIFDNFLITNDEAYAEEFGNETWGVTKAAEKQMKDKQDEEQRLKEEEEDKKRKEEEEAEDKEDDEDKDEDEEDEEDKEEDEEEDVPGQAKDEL
Sequence of Cofilin-1 (human) (P23528 2-166 limits assumed): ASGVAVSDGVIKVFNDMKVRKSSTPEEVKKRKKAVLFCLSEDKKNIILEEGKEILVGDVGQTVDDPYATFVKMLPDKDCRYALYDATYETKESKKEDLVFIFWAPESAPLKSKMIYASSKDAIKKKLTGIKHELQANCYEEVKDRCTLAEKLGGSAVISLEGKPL
Sequence of 14-3-3 protein zeta/delta (human) (P63104 whole entry, stated change not applied): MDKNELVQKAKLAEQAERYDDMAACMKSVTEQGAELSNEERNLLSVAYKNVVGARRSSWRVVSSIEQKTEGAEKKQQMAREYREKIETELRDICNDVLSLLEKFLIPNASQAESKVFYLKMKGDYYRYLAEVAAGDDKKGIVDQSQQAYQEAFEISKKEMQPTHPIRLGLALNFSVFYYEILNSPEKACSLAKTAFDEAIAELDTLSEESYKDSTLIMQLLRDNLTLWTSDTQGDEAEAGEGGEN
Sequence of Glucosidase 2 subunit beta (human) (P14314 other isoform, or with tags, fused parts or gaps limits assumed): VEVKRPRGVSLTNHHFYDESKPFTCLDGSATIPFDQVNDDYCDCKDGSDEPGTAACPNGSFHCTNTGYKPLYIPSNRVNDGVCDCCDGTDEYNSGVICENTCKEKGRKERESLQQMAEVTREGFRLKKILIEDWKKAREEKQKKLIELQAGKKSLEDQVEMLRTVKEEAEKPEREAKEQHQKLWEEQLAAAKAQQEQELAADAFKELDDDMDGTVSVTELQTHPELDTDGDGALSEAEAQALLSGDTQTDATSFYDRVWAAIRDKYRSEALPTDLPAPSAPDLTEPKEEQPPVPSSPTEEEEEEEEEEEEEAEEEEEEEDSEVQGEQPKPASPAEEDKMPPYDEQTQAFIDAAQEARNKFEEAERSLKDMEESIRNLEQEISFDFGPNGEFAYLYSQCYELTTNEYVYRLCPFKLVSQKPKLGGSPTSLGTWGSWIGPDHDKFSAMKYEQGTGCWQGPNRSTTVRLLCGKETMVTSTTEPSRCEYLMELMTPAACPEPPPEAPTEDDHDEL
Sequence of Serum deprivation-response protein (human) (O95810 2-425 limits assumed): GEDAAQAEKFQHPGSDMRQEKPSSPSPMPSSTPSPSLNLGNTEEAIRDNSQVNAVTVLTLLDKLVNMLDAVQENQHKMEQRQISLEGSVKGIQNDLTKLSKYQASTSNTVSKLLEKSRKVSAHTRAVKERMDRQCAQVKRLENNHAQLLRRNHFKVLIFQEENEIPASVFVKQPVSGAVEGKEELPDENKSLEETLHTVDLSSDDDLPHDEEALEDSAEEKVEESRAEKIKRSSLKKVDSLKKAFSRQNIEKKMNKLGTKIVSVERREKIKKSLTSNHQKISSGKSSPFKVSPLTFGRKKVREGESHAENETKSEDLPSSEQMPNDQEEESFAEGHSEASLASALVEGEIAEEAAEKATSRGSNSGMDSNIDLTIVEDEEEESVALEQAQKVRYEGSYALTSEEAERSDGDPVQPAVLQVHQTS
Sequence of Thymosin alpha-1 (human) (P06454 other isoform, or with tags, fused parts or gaps limits assumed): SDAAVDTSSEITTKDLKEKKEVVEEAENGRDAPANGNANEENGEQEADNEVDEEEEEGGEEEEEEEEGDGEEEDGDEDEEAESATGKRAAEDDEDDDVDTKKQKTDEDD

Substance: PIF15 affinity resin (Cys-C6 spacer-PIF15 conjugated to agarose) (peptide)
- Ave [1]: 2
- Inject 1 [1]: 2
- Inject 2 [1]: 2
- Inject 3 [1]: 2
- Ave [2]: 2
- Inject 1 [2]: 1
- Inject 2 [2]: 2
- Inject 3 [2]: 3
- Ave (Thrombospondin-4 (human)): 3
- Inject 1 (Thrombospondin-4 (human)): 3
- Inject 2 (Thrombospondin-4 (human)): 3
- Inject 3 (Thrombospondin-4 (human)): 3
- Ave [3]: 3
- Inject 1 [3]: 3
- Inject 2 [3]: 3
- Inject 3 [3]: 3
- Ave (Calreticulin (human)): 4
- Inject 1 (Calreticulin (human)): 4
- Inject 2 (Calreticulin (human)): 4
- Inject 3 (Calreticulin (human)): 4
- Ave [4]: 2
- Inject 1 [4]: 2
- Inject 2 [4]: 2
- Inject 3 [4]: 2
- Ave [5]: 4
- Inject 1 [5]: 4
- Inject 2 [5]: 4
- Inject 3 [5]: 4
- Ave [6]: 2
- Inject 1 [6]: 2
- Inject 2 [6]: 2
- Inject 3 [6]: 2
- Ave (Calmodulin (human)): 3
- Inject 1 (Calmodulin (human)): 3
- Inject 2 (Calmodulin (human)): 3
- Inject 3 (Calmodulin (human)): 3
- Ave [7]: 4
- Inject 1 [7]: 4
- Inject 2 [7]: 4
- Inject 3 [7]: 4
- Ave [8]: 1
- Inject 1 [8]: 1
- Inject 2 [8]: 1
- Inject 3 [8]: 1
- Ave (Cofilin-1 (human)): 1
- Inject 1 (Cofilin-1 (human)): 1
- Inject 2 (Cofilin-1 (human)): 1
- Inject 3 (Cofilin-1 (human)): 1
- Ave [9]: 3
- Inject 1 [9]: 3
- Inject 2 [9]: 3
- Inject 3 [9]: 3
- Ave (Serum albumin (human)): 8
- Inject 1 (Serum albumin (human)): 4
- Inject 2 (Serum albumin (human)): 7
- Inject 3 (Serum albumin (human)): 12
- Ave [10]: 3
- Inject 1 [10]: 3
- Inject 2 [10]: 3
- Inject 3 [10]: 3
- Ave (Thymosin alpha-1 (human)): 5
- Inject 1 (Thymosin alpha-1 (human)): 4
- Inject 2 (Thymosin alpha-1 (human)): 5
- Inject 3 (Thymosin alpha-1 (human)): 7
- Ave [11]: 2
- Inject 1 [11]: 2
- Inject 2 [11]: 2
- Inject 3 [11]: 2
- Ave (Thrombospondin-1 (human)): 6
- Inject 1 (Thrombospondin-1 (human)): 6
- Inject 2 (Thrombospondin-1 (human)): 6
- Inject 3 (Thrombospondin-1 (human)): 6
- Ave [12]: 2
- Inject 1 [12]: 2
- Inject 2 [12]: 2
- Inject 3 [12]: 2
- Ave (Nucleolin (human)): 2
- Inject 1 (Nucleolin (human)): 2
- Inject 2 (Nucleolin (human)): 2
- Inject 3 (Nucleolin (human)): 2
- Ave [13]: 10
- Inject 1 [13]: 10
- Inject 2 [13]: 10
- Inject 3 [13]: 11
- Ave [14]: 4
- Inject 1 [14]: 3
- Inject 2 [14]: 4
- Inject 3 [14]: 4
- Ave [15]: 1
- Inject 1 [15]: 1
- Inject 2 [15]: 1
- Inject 3 [15]: 1
- Ave [16]: 3
- Inject 1 [16]: 4
- Inject 2 [16]: 3
- Inject 3 [16]: 2
